Variants at the floor of the assay were thinned out.
How the values were obtained:
biotinyl-Phe-oxazolone = assay: self-aminoacylation, catalytic enhancement (BFO) (fold over background); higher = more active; k-Seq, kA / k0A0; sequences stand for … in GGGAAUGGAUCCACAUCUACGAAUUC…UUCACUGCAGACUUGACGAAGCUG
Procedure, shortened: (§1)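 Each biotinyl-aminoacyl-oxazolone, at 2–1250 μM, was incubated with mutagenized RNA pools (0.43 μM) carrying a 21-nt variable region. The 50 μL reactions contained HEPES/NaCl/KCl/MgCl2/CaCl2 buffer with 5% acetonitrile at pH 6.9–7.0 and ran for 90 minutes at room temperature. After streptavidin capture, RNA was measured by qPCR in triplicate and by Illumina sequencing, and catalytic enhancement was calculated as median kA over the uncatalyzed rate from a pseudo-first-order fit of per-sequence fraction reacted.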

biotinyl-Ile-oxazolone = assay: self-aminoacylation, catalytic enhancement (BIO) (fold over background); higher = more active; k-Seq, kA / k0A0; sequences stand for … in GGGAAUGGAUCCACAUCUACGAAUUC…UUCACUGCAGACUUGACGAAGCUG
Procedure, shortened: as §1

biotinyl-Met-oxazolone = assay: self-aminoacylation, catalytic enhancement (BMO) (fold over background); higher = more active; k-Seq, kA / k0A0; sequences stand for … in GGGAAUGGAUCCACAUCUACGAAUUC…UUCACUGCAGACUUGACGAAGCUG
Procedure, shortened: as §1

biotinyl-Val-oxazolone = assay: self-aminoacylation, catalytic enhancement (BVO) (fold over background); higher = more active; k-Seq, kA / k0A0; sequences stand for … in GGGAAUGGAUCCACAUCUACGAAUUC…UUCACUGCAGACUUGACGAAGCUG
Procedure, shortened: as §1

biotinyl-Leu-oxazolone = assay: self-aminoacylation, catalytic enhancement (BLO) (fold over background); higher = more active; k-Seq, kA / k0A0; sequences stand for … in GGGAAUGGAUCCACAUCUACGAAUUC…UUCACUGCAGACUUGACGAAGCUG
Procedure, shortened: as §1

biotinyl-Trp-oxazolone = assay: self-aminoacylation, catalytic enhancement (BWO) (fold over background); higher = more active; k-Seq, kA / k0A0; sequences stand for … in GGGAAUGGAUCCACAUCUACGAAUUC…UUCACUGCAGACUUGACGAAGCUG
Procedure, shortened: as §1

Sequence | self-aminoacylation (biotinyl-Phe-oxazolone) | self-aminoacylation (biotinyl-Ile-oxazolone) | self-aminoacylation (biotinyl-Met-oxazolone) | self-aminoacylation (biotinyl-Val-oxazolone) | self-aminoacylation (biotinyl-Leu-oxazolone) | self-aminoacylation (biotinyl-Trp-oxazolone)
CUUCUUCAAACAUUCGGUCUG [Fam1A.1 aminoacylation ribozyme variant] | 1.05 | 1.03 | 1.15 | 1.23 | 1.26 | 1.39
CUUCUUCAAAGAAUCGGUCUG [Fam1A.1 aminoacylation ribozyme variant] | 3.04 | 0.956 | 1.05 | 0.889 | 1.07 | 2.95
CUUCUUCGAACAAUCGGUCUG [Fam1A.1 aminoacylation ribozyme variant] | 0.708 | 0.627 | 0.768 | 0.743 | 0.706 | 0.443
CUUCUUCUAACAAUCGGUCUG [Fam1A.1 aminoacylation ribozyme variant] | 0.727 | 0.732 | 0.623 | 0.729 | 0.571 | 0.581
GAAUUUGCUAAUAGUCGCAAG [Fam3.1 aminoacylation ribozyme variant] | 2.52 | 1.81 | 1.51 | 1.53 | 1.38 | 1.79
GAGUGUGCUAAUAGUCGCAAG [Fam3.1 aminoacylation ribozyme variant] | 9.21 | 1.77 | 1.51 | 1.57 | 1.36 | 3.11
GAGUUUGCAAAUAGUCGCAAG [Fam3.1 aminoacylation ribozyme variant] | 1.83 | 1.22 | 0.838 | 0.746 | 1.02 | 0.87
GAGUUUGCUAAUACUCGCAAG [Fam3.1 aminoacylation ribozyme variant] | 1.09 | 1.03 | 0.939 | 1.07 | 1.01 | 1.12
GAGUUUGCUAAUAGUCCCAAG [Fam3.1 aminoacylation ribozyme variant] | 4.57 | 1.05 | 1.33 | 1.1 | 0.812 | 1.64
GAGUUUGCUAAUAGUCGCAAC [Fam3.1 aminoacylation ribozyme variant] | 1.19 | 1.4 | 1.31 | 1.19 | 0.998 | 1.2
GAGUUUGCUAAUAGUCGCAUG [Fam3.1 aminoacylation ribozyme variant] | 2.24 | 1.59 | 1.59 | 1.44 | 1.25 | 1.17
GAGUUUGCUAAUAGUCGCCAG [Fam3.1 aminoacylation ribozyme variant] | 2.04 | 2.51 | 2.45 | 1.69 | 1.47 | 2.6
GAGUUUGCUAAUAGUCUCAAG [Fam3.1 aminoacylation ribozyme variant] | 6.85 | 1.32 | 0.852 | 1.08 | 0.855 | 2.43
GAGUUUGCUAAUAUUCGCAAG [Fam3.1 aminoacylation ribozyme variant] | 1.73 | 2.04 | 1.45 | 1.36 | 1.46 | 1.62
GAGUUUGCUAAUGGUCGCAAG [Fam3.1 aminoacylation ribozyme variant] | 2.82 | 0.99 | 0.779 | 1.02 | 0.903 | 1.16
GAGUUUGGUAAUAGUCGCAAG [Fam3.1 aminoacylation ribozyme variant] | 3.41 | 1.94 | 1.75 | 1.55 | 1.73 | 2.36
GAUCACCUAGGUCAUCGGGUG [Fam2.2 aminoacylation ribozyme variant] | 17.2 | 3.45 | 3.44 | 3.54 | 3.71 | 5.58
GAUUUUGCUAAUAGUCGCAAG [Fam3.1 aminoacylation ribozyme variant] | 2.53 | 1.99 | 2.2 | 1.83 | 1.82 | 2.99
GCACAAUUCAAGCAAUCGGUC [Fam1B.1 aminoacylation ribozyme variant] | 3.04 | 2.1 | 1.81 | 1.94 | 1.79 | 3.3
GCACACUUCAACCAAUCGGUC [Fam1B.1 aminoacylation ribozyme variant] | 60.5 | 2.39 | 2.02 | 2.43 | 2.93 | 44
GCACACUUCAAGCAAGCGGUC [Fam1B.1 aminoacylation ribozyme variant] | 3.91 | 2.42 | 1.93 | 2.54 | 2.06 | 3.01
GCACACUUCAAGCAAUCGCUC [Fam1B.1 aminoacylation ribozyme variant] | 12.2 | 3.18 | 2.84 | 2.92 | 2.82 | 4.76
GCACACUUCAAGCAAUCUGUC [Fam1B.1 aminoacylation ribozyme variant] | 1.22 | 0.87 | 0.605 | 0.867 | 0.708 | 0.902
GCACACUUCAAGCAAUUGGUC [Fam1B.1 aminoacylation ribozyme variant] | 2.06 | 1.47 | 1.45 | 1.22 | 1.3 | 1.94
GCACACUUCAAGCUAUCGGUC [Fam1B.1 aminoacylation ribozyme variant] | 1.47 | 1.48 | 1.36 | 1.48 | 1.35 | 1.81
GCACACUUGAAGCAAUCGGUC [Fam1B.1 aminoacylation ribozyme variant] | 1.46 | 1.45 | 1.11 | 1.4 | 1.29 | 1.99

Sequence | self-aminoacylation (biotinyl-Phe-oxazolone) | self-aminoacylation (biotinyl-Ile-oxazolone) | self-aminoacylation (biotinyl-Met-oxazolone) | self-aminoacylation (biotinyl-Val-oxazolone) | self-aminoacylation (biotinyl-Leu-oxazolone) | self-aminoacylation (biotinyl-Trp-oxazolone)
GCACAGUUCAAGCAAUCGGUC [Fam1B.1 aminoacylation ribozyme variant] | 4.42 | 2.44 | 1.98 | 2.07 | 2.04 | 4.48
GCACGCUUCAAGCAAUCGGUC [Fam1B.1 aminoacylation ribozyme variant] | 120 | 2.55 | 2.62 | 2.74 | 3.62 | 60.1
GCAGACUUCAAGCAAUCGGUC [Fam1B.1 aminoacylation ribozyme variant] | 119 | 3.19 | 2.82 | 2.67 | 4.28 | 49.8
GCAUACUUCAAGCAAUCGGUC [Fam1B.1 aminoacylation ribozyme variant] | 19.8 | 2.35 | 2.03 | 2.01 | 2.19 | 18
GCUCACCUAGGUCAUCGGGUG [Fam2.2 aminoacylation ribozyme variant] | 35.1 | 5.39 | 6.13 | 5.77 | 6.79 | 9.1
GGGUUUGCUAAUAGUCGCAAG [Fam3.1 aminoacylation ribozyme variant] | 12.3 | 2.32 | 1.89 | 2.01 | 2.45 | 6.82
GUAACCCUGGUCAUCGAGUGA [Fam2.1 aminoacylation ribozyme variant] | 75.7 | 7.01 | 15.2 | 6.13 | 15.6 | 15.1
GUACUUCAAACAAUCCGUCUG [Fam1A.1 aminoacylation ribozyme variant] | 2.63 | 1.49 | 1.02 | 1.24 | 1.45 | 2.16
GUACUUCAAACAAUCGGUCUA [Fam1A.1 aminoacylation ribozyme variant] | 4.84 | 1.17 | 0.943 | 0.997 | 0.933 | 3.66
GUACUUCAAACAAUCGGUUUG [Fam1A.1 aminoacylation ribozyme variant] | 40.2 | 1.85 | 1.66 | 1.59 | 1.89 | 27.8
GUACUUCAAACAGUCGGUCUG [Fam1A.1 aminoacylation ribozyme variant] | 1.14 | 1.32 | 1.41 | 1.22 | 1.3 | 1.5
GUUACCCAGGUCAUCGAGUGA [Fam2.1 aminoacylation ribozyme variant] | 22.2 | 4.24 | 6.63 | 3.78 | 6.2 | 7.86
GUUACCCUGGUAAUCGAGUGA [Fam2.1 aminoacylation ribozyme variant] | 58.5 | 4.93 | 10.7 | 4.77 | 10.5 | 13.9
GUUACCCUGGUCAUAGAGUGA [Fam2.1 aminoacylation ribozyme variant] | 85.2 | 5.89 | 11.1 | 5.04 | 12.6 | 14.1
GUUACCCUGGUCAUCCAGUGA [Fam2.1 aminoacylation ribozyme variant] | 52.7 | 4.66 | 7.39 | 4.7 | 7.84 | 9.02
GUUACCCUGGUCAUCGAAUGA [Fam2.1 aminoacylation ribozyme variant] | 1.45 | 1.58 | 1.52 | 1.81 | 1.84 | 2.55
GUUACCCUGGUCAUCGACUGA [Fam2.1 aminoacylation ribozyme variant] | 0.937 | 1.2 | 1.4 | 1.21 | 1.45 | 1.01
GUUACCCUGGUCAUCGAGUGU [Fam2.1 aminoacylation ribozyme variant] | 825 | 31.5 | 111 | 37.1 | 114 | 102
GUUACCCUGGUCAUCGUGUGA [Fam2.1 aminoacylation ribozyme variant] | 30.3 | 2.6 | 4.3 | 3.08 | 4.75 | 6.06
GUUACCCUGGUCCUCGAGUGA [Fam2.1 aminoacylation ribozyme variant] | 42.7 | 3.36 | 6.3 | 4.16 | 5.97 | 6.45
GUUACCCUGUUCAUCGAGUGA [Fam2.1 aminoacylation ribozyme variant] | 37.5 | 3.34 | 7 | 3.5 | 7.51 | 8.4
GUUACCGUGGUCAUCGAGUGA [Fam2.1 aminoacylation ribozyme variant] | 55.3 | 5.33 | 9.15 | 5.58 | 10.6 | 10.1
GUUACCUUGGUCAUCGAGUGA [Fam2.1 aminoacylation ribozyme variant] | 21.1 | 4.39 | 7.16 | 4.21 | 7.14 | 9.03
GUUCACAUAGGUCAUCGGGUG [Fam2.2 aminoacylation ribozyme variant] | 51.1 | 4.89 | 6.87 | 4.64 | 8.18 | 8.49
GUUCACCUAGAUCAUCGGGUG [Fam2.2 aminoacylation ribozyme variant] | 6.53 | 2.6 | 2.87 | 2.75 | 2.92 | 3.29

Reference: the supplement of paper PMC9233669
